The conditions of the data set: Escherichia coli (strain K12); pH 7.5; Thermal; Intensity; HEPES 20mM; transition: 2; whole UniProt chain shown.

For orientation: Tm means the temperature at the midpoint of the melting transition.

B1: Ribosomal small subunit pseudouridine synthase A wild type, P0AA43 (protein)
chain: MRLDKFIAQQLGVSRAIAGREIRGNRVTVDGEIVRNAAFKLLPEHDVAYDGNPLAQQHGPRYFMLNKPQGYVCSTDDPDHPTVLYFLDEPVAWKLHAAGRLDIDTTGLVLMTDDGQWSHRITSPRHHCEKTYLVTLESPVADDTAEQFAKGVQLHNEKDLTKPAVLEVITPTQVRLTISEGRYHQVKRMFAAVGNHVVELHRERIGGITLDADLAPGEYRPLTEEEIASVV
In the case of B1, the Tm worked out at 45 °C.

B2: Probable ATP-dependent transporter SufC wild type, P77499 (protein)
chain: MLSIKDLHVSVEDKAILRGLSLDVHPGEVHAIMGPNGSGKSTLSATLAGREDYEVTGGTVEFKGKDLLALSPEDRAGEGIFMAFQYPVEIPGVSNQFFLQTALNAVRSYRGQETLDRFDFQDLMEEKIALLKMPEDLLTRSVNVGFSGGEKKRNDILQMAVLEPELCILDESDSGLDIDALKVVADGVNSLRDGKRSFIIVTHYQRILDYIKPDYVHVLYQGRIVKSGDFTLVKQLEEQGYGWLTEQQ
For the protein B2, the Tm is 44.9 °C.

B3: Formate-dependent phosphoribosylglycinamide formyltransferase wild type, P33221 (protein)
chain: MTLLGTALRPAATRVMLLGSGELGKEVAIECQRLGVEVIAVDRYADAPAMHVAHRSHVINMLDGDALRRVVELEKPHYIVPEIEAIATDMLIQLEEEGLNVVPCARATKLTMNREGIRRLAAEELQLPTSTYRFADSESLFREAVADIGYPCIVKPVMSSSGKGQTFIRSAEQLAQAWKYAQQGGRAGAGRVIVEGVVKFDFEITLLTVSAVDGVHFCAPVGHRQEDGDYRESWQPQQMSPLALERAQEIARKVVLALGGYGLFGVELFVCGDEVIFSEVSPRPHDTGMVTLISQDLSEFALHVRAFLGLPVGGIRQYGPAASAVILPQLTSQNVTFDNVQNAVGADLQIRLFGKPEIDGSRRLGVALATAESVVDAIERAKHAAGQVKVQG
As to B3, the Tm worked out at 43.4 °C.

B4: Integration host factor subunit alpha wild type, P0A6X7 (protein)
chain: MALTKAEMSEYLFDKLGLSKRDAKELVELFFEEIRRALENGEQVKLSGFGNFDLRDKNQRPGRNPKTGEDIPITARRVVTFRPGQKLKSRVENASPKDE
In the case of B4, the midpoint of thermal melting (Tm) was 44.6 °C.

B5: Phenylalanine--tRNA ligase alpha subunit wild type, P08312 (protein)
chain: MSHLAELVASAKAAISQASDVAALDNVRVEYLGKKGHLTLQMTTLRELPPEERPAAGAVINEAKEQVQQALNARKAELESAALNARLAAETIDVSLPGRRIENGGLHPVTRTIDRIESFFGELGFTVATGPEIEDDYHNFDALNIPGHHPARADHDTFWFDTTRLLRTQTSGVQIRTMKAQQPPIRIIAPGRVYRNDYDQTHTPMFHQMEGLIVDTNISFTNLKGTLHDFLRNFFEEDLQIRFRPSYFPFTEPSAEVDVMGKNGKWLEVLGCGMVHPNVLRNVGIDPEVYSGFAFGMGMERLTMLRYGVTDLRSFFENDLRFLKQFK
Consider B5, for which the Tm is 43.3 °C.

B6: GTPase ObgE/CgtA wild type, P42641 (protein)
chain: MKFVDEASILVVAGDGGNGCVSFRREKYIPKGGPDGGDGGDGGDVWMEADENLNTLIDYRFEKSFRAERGQNGASRDCTGKRGKDVTIKVPVGTRVIDQGTGETMGDMTKHGQRLLVAKGGWHGLGNTRFKSSVNRTPRQKTNGTPGDKRELLLELMLLADVGMLGMPNAGKSTFIRAVSAAKPKVADYPFTTLVPSLGVVRMDNEKSFVVADIPGLIEGAAEGAGLGIRFLKHLERCRVLLHLIDIDPIDGTDPVENARIIISELEKYSQDLATKPRWLVFNKIDLLDKVEAEEKAKAIAEALGWEDKYYLISAASGLGVKDLCWDVMTFIIENPVVQAEEAKQPEKVEFMWDDYHRQQLEEIAEEDDEDWDDDWDEDDEEGVEFIYKR
For B6, the melting temperature (Tm) was determined as 44.5 °C.

B7: Phosphoribosylglycinamide formyltransferase wild type, P08179 (protein)
chain: MNIVVLISGNGSNLQAIIDACKTNKIKGTVRAVFSNKADAFGLERARQAGIATHTLIASAFDSREAYDRELIHEIDMYAPDVVVLAGFMRILSPAFVSHYAGRLLNIHPSLLPKYPGLHTHRQALENGDEEHGTSVHFVTDELDGGPVILQAKVPVFAGDSEDDITARVQTQEHAIYPLVISWFADGRLKMHENAAWLDGQRLPPQGYAADE
Turning to B7, the Tm is 43.5 °C.

B8: Glucokinase wild type, P0A6V8 (protein)
chain: MTKYALVGDVGGTNARLALCDIASGEISQAKTYSGLDYPSLEAVIRVYLEEHKVEVKDGCIAIACPITGDWVAMTNHTWAFSIAEMKKNLGFSHLEIINDFTAVSMAIPMLKKEHLIQFGGAEPVEGKPIAVYGAGTGLGVAHLVHVDKRWVSLPGEGGHVDFAPNSEEEAIILEILRAEIGHVSAERVLSGPGLVNLYRAIVKADNRLPENLKPKDITERALADSCTDCRRALSLFCVIMGRFGGNLALNLGTFGGVFIAGGIVPRFLEFFKASGFRAAFEDKGRFKEYVHDIPVYLIVHDNPGLLGSGAHLRQTLGHIL
On to B8, for which the Tm stood at 44.4 °C.

B9: Mannosyl-3-phosphoglycerate phosphatase wild type, P76329 (protein)
chain: MFSIQQPLLVFSDLDGTLLDSHSYDWQPAAPWLTRLREANVPVILCSSKTSAEMLYLQKTLGLQGLPLIAENGAVIQLAEQWQEIDGFPRIISGISHGEISLVLNTLREKEHFKFTTFDDVDDATIAEWTGLSRSQAALTQLHEASVTLIWRDSDERMAQFTARLNELGLQFMQGARFWHVLDASAGKDQAANWIIATYQQLSGKRPTTLGLGDGPNDAPLLEVMDYAVIVKGLNREGVHLHDEDPARVWRTQREGPEGWREGLDHFFSAR
For B9, the Tm was determined as 43.9 °C.

B10: UTP--glucose-1-phosphate uridylyltransferase wild type, P0AEP3 (protein)
chain: MAAINTKVKKAVIPVAGLGTRMLPATKAIPKEMLPLVDKPLIQYVVNECIAAGITEIVLVTHSSKNSIENHFDTSFELEAMLEKRVKRQLLDEVQSICPPHVTIMQVRQGLAKGLGHAVLCAHPVVGDEPVAVILPDVILDEYESDLSQDNLAEMIRRFDETGHSQIMVEPVADVTAYGVVDCKGVELAPGESVPMVGVVEKPKADVAPSNLAIVGRYVLSADIWPLLAKTPPGAGDEIQLTDAIDMLIEKETVEAYHMKGKSHDCGNKLGYMQAFVEYGIRHNTLGTEFKAWLEEEMGIKK
With B10, the Tm was 45.6 °C.

B11: Transcriptional regulatory protein CusR wild type, P0ACZ8 (protein)
chain: MKLLIVEDEKKTGEYLTKGLTEAGFVVDLADNGLNGYHLAMTGDYDLIILDIMLPDVNGWDIVRMLRSANKGMPILLLTALGTIEHRVKGLELGADDYLVKPFAFAELLARVRTLLRRGAAVIIESQFQVADLMVDLVSRKVTRSGTRITLTSKEFTLLEFFLRHQGEVLPRSLIASQVWDMNFDSDTNAIDVAVKRLRGKIDNDFEPKLIQTVRGVGYMLEVPDGQ
Consider B11, for which the Tm was 43.7 °C.

B12: Phosphoribosylaminoimidazole-succinocarboxamide synthase wild type, P0A7D7 (protein)
chain: MQKQAELYRGKAKTVYSTENPDLLVLEFRNDTSAGDGARIEQFDRKGMVNNKFNYFIMSKLAEAGIPTQMERLLSDTECLVKKLDMVPVECVVRNRAAGSLVKRLGIEEGIELNPPLFDLFLKNDAMHDPMVNESYCETFGWVSKENLARMKELTYKANDVLKKLFDDAGLILVDFKLEFGLYKGEVVLGDEFSPDGSRLWDKETLEKMDKDRFRQSLGGLIEAYEAVARRLGVQLD
B12: the melting temperature (Tm) was found to be 43.1 °C.

B13: Putative NAD(P)H nitroreductase YdjA wild type, P0ACY1 (protein)
chain: MDALELLINRRSASRLAEPAPTGEQLQNILRAGMRAPDHKSMQPWHFFVIEGEGRERFSAVLEQGAIAAGSDDKAIDKARNAPFRAPLIITVVAKCEENHKVPRWEQEMSAGCAVMAMQMAAVAQGFGGIWRSGALTESPVVREAFGCREQDKIVGFLYLGTPQLKASTSINVPDPTPFVTYF
Turning to B13, the Tm came to 45.3 °C.

B14: dTDP-glucose 4,6-dehydratase 1 wild type, P37759 (protein)
chain: MKILVTGGAGFIGSAVVRHIINNTQDSVVNVDKLTYAGNRESLADVSDSERYVFEHADICDAPAMARIFAQHQPDAVMHLAAESHVDRSITGPAAFIETNIVGTYVLLEAARNYWSALDSDKKNSFRFHHISTDEVYGDLPHPDEVNNTEELPLFTETTAYAPSSPYSASKASSDHLVRAWKRTYGLPTIVTNCSNNYGPYHFPEKLIPLVILNALEGKALPIYGKGDQIRDWLYVEDHARALYTVVTEGKAGETYNIGGHNEKKNIDVVLTICDLLDEIVPKEKSYREQITYVADRPGHDRRYAIDAEKIGRALGWKPQETFESGIRKTVEWYLSNTKWVDNVKSGAYQSWIEQNYEGRQ
Take B14: the melting temperature (Tm) was 44.3 °C.

B15: UDP-glucose 4-epimerase wild type, P09147 (protein)
chain: MRVLVTGGSGYIGSHTCVQLLQNGHDVIILDNLCNSKRSVLPVIERLGGKHPTFVEGDIRNEALMTEILHDHAIDTVIHFAGLKAVGESVQKPLEYYDNNVNGTLRLISAMRAANVKNFIFSSSATVYGDQPKIPYVESFPTGTPQSPYGKSKLMVEQILTDLQKAQPDWSIALLRYFNPVGAHPSGDMGEDPQGIPNNLMPYIAQVAVGRRDSLAIFGNDYPTEDGTGVRDYIHVMDLADGHVVAMEKLANKPGVHIYNLGAGVGNSVLDVVNAFSKACGKPVNYHFAPRREGDLPAYWADASKADRELNWRVTRTLDEMAQDTWHWQSRHPQGYPD
B15: the Tm came out at 45 °C.

B16: dTDP-4-dehydrorhamnose 3,5-epimerase wild type, P37745 (protein)
chain: MNVIRTEIEDVLILEPRVFGDDRGFFYESFNQSAFEHILGYPVSFVQDNHSRSSKNVLRGLHFQRGEYAQDKLVRCTHGAVFDVAVDIRPNSVSFGKWVGVLLSADNKQQLWIPKGFAHGFLVLSDIAEFQYKTTNYYHPESDCGICWNDERIAIDWPQTSGLILSPKDERLFTLDELIRLKLIA
As for B16, the Tm amounted to 44.2 °C.

B17: Protein GrpE wild type, P09372 (protein)
chain: MSSKEQKTPEGQAPEEIIMDQHEEIEAVEPEASAEQVDPRDEKVANLEAQLAEAQTRERDGILRVKAEMENLRRRTELDIEKAHKFALEKFINELLPVIDSLDRALEVADKANPDMSAMVEGIELTLKSMLDVVRKFGVEVIAETNVPLDPNVHQAIAMVESDDVAPGNVLGIMQKGYTLNGRTIRAAMVTVAKAKA
With B17, the Tm is 44 °C.

Values taken from FireProtDB (doi:10.1126/science.aai7825).
